Source: IntAct's records for PubMed 18007658

B1: Protein SLY1 (Saccharomyces cerevisiae), P22213 (parent)
chain: MAVEEIASRKDISLRDMQISAILKMLFLNKDLNNNDNITTITDDIFNQQEIIWKVLILDIKSTATISSVLRVNDLLKAGITVHSLIKQDRSPLPDVPAIYFVSPTKENIDIIVNDLKSDKYSEFYINFTSSLPRNLLEDLAQQVSITGKSDKIKQVYDQYLDFIVTEPELFSLEISNAYLTLNDPKTTEEEITGLCANIADGLFNTVLTINSIPIIRAAKGGPAEIIAEKLGTKLRDFVINTNSSSTSTLQGNDSLERGVLIILDRNIDFASMFSHSWIYQCMVFDIFKLSRNTVTIPLESKENGTDNTTAKPLATKKYDIEPNDFFWMENSHLPFPEAAENVEAALNTYKEEAAEITRKTGVTNISDLDPNSNNDTVQIQEVVKKLPELTAKKNTIDTHMNIFAALLSQLESKSLDTFFEVEQDPGSTKTRSRFLDILKDGKTNNLEDKLRSFIVLYLTSTTGLPKDFVQNVENYFKENDYDINALKYVYKLREFMQLSNMSLQNKSLEDGSDSAFKPSNLTLSGIYGLTEGKLQGGVGSLISGIKKLLPEKKTIPITNVVDAIMDPLNSSQKNLETTDSYLYIDPKITRGSHTRKPKRQSYNKSLVFVVGGGNYLEYQNLQEWAHSQLHNPKKVMYGSTAITTPAEFLNEISRLGASNSSNNDA
partner: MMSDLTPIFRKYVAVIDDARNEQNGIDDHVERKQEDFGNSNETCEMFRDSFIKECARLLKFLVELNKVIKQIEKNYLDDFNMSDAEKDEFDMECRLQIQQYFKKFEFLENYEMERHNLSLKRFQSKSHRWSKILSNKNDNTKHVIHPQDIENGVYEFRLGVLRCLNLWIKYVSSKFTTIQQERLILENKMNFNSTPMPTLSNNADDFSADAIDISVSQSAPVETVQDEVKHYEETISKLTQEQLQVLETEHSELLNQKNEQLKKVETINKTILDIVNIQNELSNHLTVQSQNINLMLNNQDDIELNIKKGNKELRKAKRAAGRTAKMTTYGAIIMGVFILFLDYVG
B2: Syntaxin UFE1 (Saccharomyces cerevisiae), P41834 (parent)
chain: B1 partner
partner: B1 chain

Variants of: B1
Conditions: with ufe1_yeast UFE1, P41834

effect of a mutation on the interaction	Variant
disrupting interaction	L137R

Variants of: B1
Conditions: with ufe1_yeast UFE1, P41834
Remark: another data set of the same source

effect of a mutation on the interaction	Variant
decreasing interaction	L137R

Variants of: B2
Conditions: with sly1_yeast SLY1, P22213

effect of a mutation on the interaction	Variant
disrupting interaction	F9A
